In PMC11417369, “DNA sequence and chromatin differentiate sequence-specific transcription factor binding in the human malaria parasite Plasmodium falciparum” one finds binding signal data, which are given here for 38 molecules.

First the molecules themselves.
T1: PF3D7_0420300 D1 (Plasmodium falciparum, UniProt Q8I1N6 1956-2015)
T1 sequence: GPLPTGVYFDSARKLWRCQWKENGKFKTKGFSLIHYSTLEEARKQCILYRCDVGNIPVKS

T2: AP2-HC D1 (Plasmodium falciparum, UniProt Q8IKR9 1316-1374)
T2 sequence: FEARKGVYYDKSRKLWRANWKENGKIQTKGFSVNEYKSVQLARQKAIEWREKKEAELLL

B1: CACACA_negctrl_site49 (dsDNA)
DNA 1: AATATATAAATATATATAAATAAATATATATATAAA
DNA 2: TTTATATATATATTTATTTATATATATTTATATATT
B2: CACACA_negctrl_site1139 (dsDNA)
DNA 1: ATTTTTTTTTTTTTTATTCCCCTTTCGAAAAAAACC
DNA 2: GGTTTTTTTCGAAAGGGGAATAAAAAAAAAAAAAAT
B3: CACACA_negctrl_site1235 (dsDNA)
DNA 1: TTTAAAAAAAAAAAAAAAAAAAAAAAAAAAAATTTG
DNA 2: CAAATTTTTTTTTTTTTTTTTTTTTTTTTTTTTAAA
B4: CACACA_negctrl_site1092 (dsDNA)
DNA 1: TCAAAATGTGACATAAAAGAAAAAAAAAAAAAAAAA
DNA 2: TTTTTTTTTTTTTTTTTCTTTTATGTCACATTTTGA
B5: CACACA_site2305 (dsDNA)
DNA 1: TTCCCCCCCAGACACACACACACATACATACCACAT
DNA 2: ATGTGGTATGTATGTGTGTGTGTGTCTGGGGGGGAA
B6: CACACA_negctrl_site148 (dsDNA)
DNA 1: TTTTTGATGAAATATTATTTTCCTGACTTGGATTAA
DNA 2: TTAATCCAAGTCAGGAAAATAATATTTCATCAAAAA
B7: CACACA_negctrl_site272 (dsDNA)
DNA 1: TACCTTTCTTATTATTGAAAAGGAATATATAAATAG
DNA 2: CTATTTATATATTCCTTTTCAATAATAAGAAAGGTA
B8: CACACA_negctrl_site1564 (dsDNA)
DNA 1: AAAATGTCCCGTAGAAAATAAATTTATTACGCAATA
DNA 2: TATTGCGTAATAAATTTATTTTCTACGGGACATTTT
B9: CACACA_negctrl_site1096 (dsDNA)
DNA 1: ATTATATTCTTTACTACCAATTAGTAGAAAATAAAA
DNA 2: TTTTATTTTCTACTAATTGGTAGTAAAGAATATAAT
B10: CACACA_negctrl_site1152 (dsDNA)
DNA 1: TCATATTTGCCTTTTTATTTAGAACACAAAAAAAAA
DNA 2: TTTTTTTTTGTGTTCTAAATAAAAAGGCAAATATGA
B11: CACACA_site7658 (dsDNA)
DNA 1: AATAAAAAGGAACACACACACACACGGATATAAATA
DNA 2: TATTTATATCCGTGTGTGTGTGTGTTCCTTTTTATT
B12: CACACA_negctrl_site680 (dsDNA)
DNA 1: AACACTCAAAAAAATTTAAATAAAAAAAAAAAAAAA
DNA 2: TTTTTTTTTTTTTTTATTTAAATTTTTTTGAGTGTT
B13: CACACA_negctrl_site398 (dsDNA)
DNA 1: TATTTATTTATTTATTTATTTATTTATTTATATTTA
DNA 2: TAAATATAAATAAATAAATAAATAAATAAATAAATA
B14: CACACA_negctrl_site1286 (dsDNA)
DNA 1: TTGTATTCCTTTTACAACTACCATGAAGAGAATTTT
DNA 2: AAAATTCTCTTCATGGTAGTTGTAAAAGGAATACAA
B15: CACACA_negctrl_site474 (dsDNA)
DNA 1: TAAAAAAAGGAAAACATACAATTCTATTTTTCAATA
DNA 2: TATTGAAAAATAGAATTGTATGTTTTCCTTTTTTTA
B16: CACACA_negctrl_site484 (dsDNA)
DNA 1: ATTCATATTAAATATATATATATATATATATATATA
DNA 2: TATATATATATATATATATATATATTTAATATGAAT
B17: CACACA_negctrl_site1022 (dsDNA)
DNA 1: ATAAATTGTTCTTTTTGTGTAAACAGAATATTAAAA
DNA 2: TTTTAATATTCTGTTTACACAAAAAGAACAATTTAT
B18: CACACA_negctrl_site1232 (dsDNA)
DNA 1: AATATTTTTCAATTTCATGTGCATTCATTGAAGTTA
DNA 2: TAACTTCAATGAATGCACATGAAATTGAAAAATATT
B19: CACACA_negctrl_site1685 (dsDNA)
DNA 1: ATATATATATAAATATAAATATATATATATATATAT
DNA 2: B19 DNA 1 with A12T, A18T, A19T, A25T
B20: CACACA_negctrl_site1260 (dsDNA)
DNA 1: TAAATCATTTCATGGCATTTACACAAAATTTTTTAA
DNA 2: TTAAAAAATTTTGTGTAAATGCCATGAAATGATTTA
B21: CACACA_negctrl_site842 (dsDNA)
DNA 1: ACTAAAAGATATATAATTTCTTTCTTATTTATTTTT
DNA 2: AAAAATAAATAAGAAAGAAATTATATATCTTTTAGT
B22: CACACA_negctrl_site844 (dsDNA)
DNA 1: AATATCATCCTTTTTTTTTATAAAATTTAAAATATA
DNA 2: TATATTTTAAATTTTATAAAAAAAAAGGATGATATT
B23: CACACA_negctrl_site1762 (dsDNA)
DNA 1: TTTTTTTCTTCTTTTCTCTTAAAAATATTGAATATT
DNA 2: AATATTCAATATTTTTAAGAGAAAAGAAGAAAAAAA
B24: CACACA_negctrl_site607 (dsDNA)
DNA 1: TGTGTCAAGTTTAATAAACGCATATAATATATATGA
DNA 2: TCATATATATTATATGCGTTTATTAAACTTGACACA
B25: CACACA_negctrl_site1411 (dsDNA)
DNA 1: AATTAAAGGAATTACAACTTTGCAAGCGCAACATAA
DNA 2: TTATGTTGCGCTTGCAAAGTTGTAATTCCTTTAATT
B26: CACACA_negctrl_site721 (dsDNA)
DNA 1: TTTTAAAAAAAATAAAAAATAAACAATAATAAATAA
DNA 2: TTATTTATTATTGTTTATTTTTTATTTTTTTTAAAA
B27: CACACA_negctrl_site929 (dsDNA)
DNA 1: ACAGATATACATAAAAAAAAAATAATTTTACATATA
DNA 2: TATATGTAAAATTATTTTTTTTTTATGTATATCTGT
B28: CACACA_negctrl_site1 (dsDNA)
DNA 1: TTTTTTATTGTGATACGTATATTATTTTTTGATAAA
DNA 2: TTTATCAAAAAATAATATACGTATCACAATAAAAAA
B29: CACACA_negctrl_site1028 (dsDNA)
DNA 1: ATTTTTTTATGTACACAAAAAAAAAAAAAAATTTAA
DNA 2: TTAAATTTTTTTTTTTTTTTGTGTACATAAAAAAAT
B30: CACACA_negctrl_site660 (dsDNA)
DNA 1: TTTTCTTAATATTTCGTTTTACATAAACCTTTTAAA
DNA 2: TTTAAAAGGTTTATGTAAAACGAAATATTAAGAAAA
B31: CACACA_negctrl_site368 (dsDNA)
DNA 1: TTTTTCATTTCTGCATTTATTTATAAATAAATATTT
DNA 2: AAATATTTATTTATAAATAAATGCAGAAATGAAAAA
B32: CACACA_negctrl_site580 (dsDNA)
DNA 1: TATTAAAAAAAAAAATAAAAAAATAAAATAAAATAA
DNA 2: TTATTTTATTTTATTTTTTTATTTTTTTTTTTAATA
B33: CACACA_negctrl_site629 (dsDNA)
DNA 1: TGCTTATATCTTATAATATTTATACATCATAATAAG
DNA 2: CTTATTATGATGTATAAATATTATAAGATATAAGCA
B34: CACACA_negctrl_site215 (dsDNA)
DNA 1: ATAAAATATTATATATATATATATATATATATATAT
DNA 2: ATATATATATATATATATATATATATAATATTTTAT
B35: CACACA_negctrl_site1162 (dsDNA)
DNA 1: ACACAAAAAAAAAAAAAAAAAAAAAAAAAAAAGGAA
DNA 2: TTCCTTTTTTTTTTTTTTTTTTTTTTTTTTTTGTGT
B36: CACACA_negctrl_site1512 (dsDNA)
DNA 1: ACGAATTAAATGGATTAATATATATATGTATATTTA
DNA 2: TAAATATACATATATATATTAATCCATTTAATTCGT
B37: CACACA_negctrl_site1531 (dsDNA)
DNA 1: TATTTCCATTCATAATTTTGTAGAATATATAACCGT
DNA 2: ACGGTTATATATTCTACAAAATTATGAATGGAAATA
B38: CACACA_negctrl_site217 (dsDNA)
DNA 1: TAATTTCATCATATTTGTTCCTTCTCAAAATTTTTT
DNA 2: AAAAAATTTTGAGAAGGAACAAATATGATGAAATTA

Substitutions are numbered along the chain they refer to.

The target in one data set is T1, PF3D7_0420300 D1. Put plainly: gcPBM; about 25 ug protein; PBS, 1% milk, 0.2 mg/ml BSA, salmon testes DNA, 0.03% Triton X-100. To be noted: tags: N-terminal GST (pGEX-4T-1), kept; label: surface-attached array probe.
B1: the binding signal is 8.92 ln median PBM intensity, better of two orientations.
Turning to B2, the binding signal is 9.05 ln median PBM intensity, better of two orientations.
Still for that read-out and setting: next, B3: 8.59 ln median PBM intensity, better of two orientations.
On the same count and under the same terms, next, B4: 8.62 ln median PBM intensity, better of two orientations; B5: 10.4 ln median PBM intensity, better of two orientations.
Take B6: the binding signal was 8.86 ln median PBM intensity, better of two orientations.
The same measure, in the same setting: next, B7: 8.89 ln median PBM intensity, better of two orientations.
Still for that read-out and setting: next, B8: 9.06 ln median PBM intensity, better of two orientations; B9: 8.9 ln median PBM intensity, better of two orientations; B10: 8.77 ln median PBM intensity, better of two orientations.
On the same count and under the same terms, next, B11: 10.5 ln median PBM intensity, better of two orientations.
Consider B12, for which the binding signal is 8.7 ln median PBM intensity, better of two orientations.

Another data set has as its target T2, AP2-HC D1. Described as above. To be noted: tags: N-terminal GST (pGEX-4T-1), kept; label: surface-attached array probe.
As to B13, the binding signal is 9.48 ln median PBM intensity, better of two orientations.
The same measure, in the same setting: next, B14: 9.49 ln median PBM intensity, better of two orientations.
On the same count and under the same terms, next, B15: 9.49 ln median PBM intensity, better of two orientations.
Same read-out and setting: next, B16: 9.51 ln median PBM intensity, better of two orientations; B17: 9.48 ln median PBM intensity, better of two orientations.
For B18, the binding signal is 9.51 ln median PBM intensity, better of two orientations.
Still for that read-out and setting: next, B19: 9.5 ln median PBM intensity, better of two orientations.
The same measure, in the same setting: next, B1: 9.5 ln median PBM intensity, better of two orientations; B20: 9.48 ln median PBM intensity, better of two orientations; B21: 9.49 ln median PBM intensity, better of two orientations.
Still for that read-out and setting: next, B2: 9.47 ln median PBM intensity, better of two orientations.
B22: the binding signal was 9.5 ln median PBM intensity, better of two orientations.
On the same count and under the same terms, next, B3: 9.1 ln median PBM intensity, better of two orientations; B4: 9 ln median PBM intensity, better of two orientations.
With B5, the binding signal is 12.1 ln median PBM intensity, better of two orientations.
Still for that read-out and setting: next, B23: 9.49 ln median PBM intensity, better of two orientations; B24: 9.51 ln median PBM intensity, better of two orientations; B6: 9.49 ln median PBM intensity, better of two orientations.
Same read-out and setting: next, B25: 9.47 ln median PBM intensity, better of two orientations.
Regarding B26, the binding signal was 9.49 ln median PBM intensity, better of two orientations.
The same measure, in the same setting: next, B27: 9.47 ln median PBM intensity, better of two orientations.
Same read-out and setting: next, B7: 9.13 ln median PBM intensity, better of two orientations.
On the same count and under the same terms, next, B28: 9.51 ln median PBM intensity, better of two orientations.
As for B8, the binding signal was 9.41 ln median PBM intensity, better of two orientations.
Same read-out and setting: next, B29: 9.48 ln median PBM intensity, better of two orientations; B9: 9.31 ln median PBM intensity, better of two orientations.
On the same count and under the same terms, next, B10: 9.29 ln median PBM intensity, better of two orientations; B30: 9.51 ln median PBM intensity, better of two orientations; B31: 9.47 ln median PBM intensity, better of two orientations.
As for B32, the binding signal is 9.47 ln median PBM intensity, better of two orientations.
Still for that read-out and setting: next, B33: 9.47 ln median PBM intensity, better of two orientations.
Still for that read-out and setting: next, B34: 9.5 ln median PBM intensity, better of two orientations; B11: 11.7 ln median PBM intensity, better of two orientations; B12: 9.05 ln median PBM intensity, better of two orientations.
Same read-out and setting: next, B35: 9.5 ln median PBM intensity, better of two orientations; B36: 9.5 ln median PBM intensity, better of two orientations; B37: 9.51 ln median PBM intensity, better of two orientations.
For the molecule B38, the binding signal is 9.48 ln median PBM intensity, better of two orientations.
